Measured values as given in paper PMC5291076, “Analyzing native membrane protein assembly in nanodiscs by combined non-covalent mass spectrometry and synthetic biology” (eLife, 2017).

Key:
[1] = molecular target: Proteorhodopsin (green variant); assay: native MS; LILBID-MS of PR synthesized in the presence of DH7PC and GDN and purified with 0.1% DH7PC; no nanodiscs
[2] = molecular target: Proteorhodopsin (green variant); assay: native MS; LILBID-MS of the membrane protein in MSP1E3D1 (DMPG) nanodiscs; 50 mM ammonium acetate pH 6.8; anionic mode; laser pulse energy between 9.5 and 23 mJ; unlabeled and (KcsA) 15N, 2H labeled samples
[3] = molecular target: the molecule itself; assay: as above
[4] = molecular target: the molecule itself; assay: native MS; LILBID-MS of hHv1-VSD in nanodiscs of MSP1D1ΔH5 (19.49 kDa, His6-tag cleaved); unlabeled and 15N, 2H labeled samples

Row | Molecule | stoichiometry N [3] | other results
1 | Proteorhodopsin (green variant) (natural protein) | – | stoichiometry N [1]: 2; stoichiometry N [2]: < 6
2 | Phospho-N-acetylmuramyl-pentapeptide-transferase E.coli (enzyme, E. coli, UniProt P0A6W3 1-360, looked up, MraY translocase of E. coli; theoretical mass of the construct 42.22 kDa; Dimer in DMPG and in DMPC/DMPG nanodiscs, monomer in DMPC nanodiscs; also called Ec-MraY; E. coli MraY; source: cell-free (CECF, E. coli A19 lysate), co-translationally inserted into nanodiscs, purified (Streptactin)) MLVWLAEHLVKYYSGFNVFSYLTFRAIVSLLTALFISLWMGPRMIAHLQKLSFGQVVRNDGPESHFSKRGTPTMGGIMILTAIVISVLLWAYPSNPYVWCVLVVLVGYGVIGFVDDYRKVVRKDTKGLIARWKYFWMSVIALGVAFALYLAGKDTPATQLVVPFFKDVMPQLGLFYILLAYFVIVGTGNAVNLTDGLDGLAIMPTVFVAGGFALVAWATGNMNFASYLHIPYLRHAGELVIVCTAIVGAGLGFLWFNTYPAQVFMGDVGSLALGGALGIIAVLLRQEFLLVIMGGVFVVETLSVILQVGSFKLRGQRIFRMAPIHHHYELKGWPEPRVIVRFWIISLMLVLIGLATLKVR | 2 | –
3 | Human proton channel - voltage sensing domain (domain or fragment, UniProt Q96D96 75-223, looked up, in some samples uniformly 15N, 2H isotope labeled, voltage-sensing domain of the human proton channel Hv1, residues 75-223; lacks the intracellular domain; theoretical mass of the construct 20.80 kDa; Construct in pET15b described in Li et al., 2015; a C-terminal StrepII tag was added here by QuickChange mutagenesis; also called hHv1-VSD; hHv-1-VSD) APAPGPAPRAPLDFRGMLRKLFSSHRFQVIIICLVVLDALLVLAELILDLKIIQPDKNNYAAMVFHYMSITILVFFMMEIIFKLFVFRLEFFHHKFEILDAVVVVVSFILDIVLLFQEHQFEALGLLILLRLWRVARIINGIIISVKTR | – | stoichiometry N [4]: 2
4 | Multidrug transporter EmrE (natural protein, small multidrug transporter EmrE; theoretical mass of the construct 13.00 kDa; source: cell-free (CECF, E. coli A19 lysate), co-translationally inserted into nanodiscs, purified (Streptactin)) MNPYIYLGGAILAEVIGTTLMKFSEGFTRLWPSVGTIICYCASFWLLAQTLAYIPTGIAYAIWSGVGIVLISLLSWGFFGQRLDLPAIIGMMLICAGVLIINLLSRSTPH | 2 | –
5 | Phospho-N-acetylmuramyl-pentapeptide-transferase B.subtilis (enzyme, B. subtilis, UniProt Q03521 1-324, looked up, MraY translocase of B. subtilis; theoretical mass of the construct 37.88 kDa; also called Bs-MraY; B. subtilis MraY; source: cell-free (CECF, E. coli A19 lysate), co-translationally inserted into nanodiscs, purified (Streptactin)) MLEQVILFTILMGFLISVLLSPILIPFLRRLKFGQSIREEGPKSHQKKSGTPTMGGVMIILSIIVTTIVMTQKFSEISPEMVLLLFVTLGYGLLGFLDDYIKVVMKRNLGLTSKQKLIGQIIIAVVFYAVYHYYNFATDIRIPGTDLSFDLGWAYFILVLFMLVGGSNAVNLTDGLDGLLSGTAAIAFGAFAILAWNQSQYDVAIFSVAVVGAVLGFLVFNAHPAKVFMGDTGSLALGGAIVTIAILTKLEILLVIIGGVFVIETLSVILQVISFKTTGKRIFKMSPLHHHYELVGWSEWRVVVTFWAAGLLLAVLGIYIEVWL | 2 | –
6 | pH-gated potassium channel KcsA (natural protein, in some samples uniformly 15N, 2H isotope labeled, pH-gated potassium channel KcsA; theoretical mass of the construct 21.33 kDa (22.70 kDa labeled); The printed mass (21.33 kDa) is larger than the natural chain, so tags or extra residues beyond the StrepII tag may be present; source: cell-free (CECF, E. coli A19 lysate), co-translationally inserted into nanodiscs, purified (Streptactin)) SALHWRAAGAATVLLVIVLLAGSYLAVLAERGAPGAQLITYPRALWWSVETATTVGYGDLYPVTLWGRLVAVVVMVAGITSFGLVTAALATWFVGREQERRGHFVRHSEKAAEEAYTRTTRALHERFDRLERMLDDNRR | 4 | –
